± gives the uncertainty stated by the source.
Assay: amyloid nucleation score (Sup35N fusion, yeast selection) (log enrichment); library NNK1; higher = more nucleation; inactive = no reads after selection
Procedure, shortened: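 The nucleation score is the DiMSum log enrichment of output over input reads, centred on the mode score of non-aggregating sequences. Only sequences with 100 or more input reads were scored, using Illumina sequencing of input and output plasmid inserts. Psi-negative yeast expressing Sup35N fused to peptides of 20 random codons were induced 24 hours with 100 μM copper sulfate and grown 7 days at 30°C on medium lacking adenine and uracil.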

| Substance | amyloid nucleation score |
| --- | --- |
| TYCRQDRWVGSKKLSCTIDC | -0.025 ± 0.23 |
| SYAYKLETNSRFMIQWKVQY | 3.48 ± 0.092 |
| RPAKLMAMPKILIGPH | 0.131 ± 0.26 |
| SDRSLVGRNAGM | -0.468 ± 0.65 |
| AFWFMCWGMTRTRYV | 2.73 ± 0.11 |
| FKYALKTSCLLIVQDGGSMR | -0.023 ± 1.4 |
| IYNIVGSLMSSAVFPGQSIS | -1.38 ± 1.2 |
| GCLRVSDTIRGMPRQSLDWA | 0.445 ± 0.28 |
| EPSGLLFSTLGTSTYGYIQF | 2.27 ± 0.11 |
| TMDGHLGYRSRNILLLSVFV | -0.41 ± 0.55 |
| RSVYFIYTWIWQVSAVIFLC | 0.107 ± 0.2 |
| GYLSHII | -0.112 ± 0.51 |
| SSGDGRRAP | 0.335 ± 0.39 |
| DHHQGMM | -0.213 ± 1.2 |
| AYAEIYERSEPGKDRHYLFM | -0.313 ± 0.74 |
| ESLREVTLYATKSLWMNLRL | -1.83 ± 1.1 |
| AVITLQVHLLPEYFQAACIT | 0.154 ± 0.38 |
| GRVQGNFLINRVCRWWGVAG | 0.182 ± 0.56 |
| SHLTRDSILRVRVCWTNCVQ | -0.026 ± 0.59 |
| HLVRRLYSKWMQT | -0.711 ± 0.96 |
| DFKVAL | -0.644 ± 0.35 |
| LAWYFTPFVDHS | 1.13 ± 0.84 |
| FRNGDGVQPWLTWHAV | 1.28 ± 0.33 |
| NVKICDGAIIYMSSMASFEL | 4.79 ± 0.092 |
| TSPSRIMS | 1.12 ± 0.35 |
| MGNLATRWFQR | -0.037 ± 1.4 |

| Substance | amyloid nucleation score |
| --- | --- |
| CKRTSDPCHIVECFLPFHVL | 0.315 ± 0.85 |
| VCDFNVNYMSLVCEIHGT | 0.495 ± 0.56 |
| TLSVFREWSCLGMLLGYHNL | inactive |
| FLFFRS | 4.62 ± 0.086 |
| DSYWILSLLWGL | -0.369 ± 0.19 |
| HATMVSALLVWGW | -0.286 ± 1.9 |
| LRTCIVGKLNQTTEILCGSS | 1.14 ± 0.73 |
| LEYSS | -0.145 ± 0.41 |
| IWTNTLNFTARFANVLAGTG | -0.705 ± 1.2 |
| LVLVRFITPVDLAVMNGRLW | -0.927 ± 0.34 |
| RRFEWFAGHCGIVDLPLGVG | 0.568 ± 0.97 |
| KMTCSPSH | 0.867 ± 0.88 |
| NPTNVSVWGTRGPGCVDYWY | -0.304 ± 0.41 |
| RKTNLGWHSICRA | -0.435 ± 0.28 |
| NSHRNSWSYMRHYSQSLMC | 0.227 ± 0.74 |
| LNNYCCYIAKYVYWW | 6.089 ± 0.044 |
| STFMSILTSESTMRNGITNR | inactive |
| DDCRMYAFL | 0.776 ± 0.36 |
| FYGVRVTGAAFRALVMVSPR | 0.616 ± 1.1 |
| GFLSATWCSQWSIILVKERG | 1.48 ± 0.45 |
| SILETLGLAFVK | -0.41 ± 0.57 |
| CSGNLVMVLSAACAKVGYLV | -1.48 ± 1.7 |
| YCGKR | 1.12 ± 0.58 |
| ATLVTV | 0.759 ± 0.67 |
| RIDQNICGIVNMVFR | 6.311 ± 0.047 |
| KVLNILYWGRTDVG | 1.41 ± 0.33 |

| Substance | amyloid nucleation score |
| --- | --- |
| GTDYIKVSASPRSFMYDSSV | 1.88 ± 0.62 |
| KSTLVKHLNQYYRLVLMGPL | 1.1 ± 0.54 |
| RKAIFTSFSQ | inactive |
| GLMGLFVKWYNVVQIFQSRM | -0.437 ± 0.61 |
| IFSPVSCDMVTDGMGTSCWY | 0.144 ± 0.9 |
| CPLSNGSVRVNDGATTLAWL | -0.956 ± 2.1 |
| IWVFMVVIMC | 1.07 ± 0.79 |
| AFEFKRLRIACVNDGQINLG | 2.43 ± 0.42 |
| YKLLYGYWLDWREGRNHKPK | 0.479 ± 0.32 |
| FLGLNQLNFWFGAS | 7.845 ± 0.045 |
| LSRNVVGAFGSGHWRADRAA | 0.256 ± 0.64 |
| LFRLIAFWDWLYSWNRFFGW | 0.481 ± 0.43 |
| PSIGMVF | 1.77 ± 0.53 |
| SLLALLPLQYWVYRIKNLVH | -0.057 ± 1.5 |
| RRENIP | 0.01 ± 0.42 |
| SPKSLLKRLWEYARKNTVML | 0.151 ± 0.49 |
| NDVTVID | 0.286 ± 0.17 |
| LCVEVS | 0.369 ± 0.42 |
| IGWCWVIMQGNIEQVDRG | 4.72 ± 0.074 |
| LARLLNGQVGNDYCPGVPGG | -0.543 ± 0.4 |
| AASKIIENIGHLC | -0.337 ± 0.52 |
| FFISALLNSSFGEFTFGSVK | -0.432 ± 0.65 |
| VITRFYGSVGLRIPAIAVVL | 0.886 ± 0.58 |
| TVLNDYWFSTHKLSIR | 0.958 ± 0.48 |
| VRQSGLCIKWEVTRRAKRSV | 0.699 ± 0.85 |
| YINVLVKAHGMMVPRRLKWV | 0.086 ± 0.32 |

| Substance | amyloid nucleation score |
| --- | --- |
| SSEVRMTVVSLGPLMDRPNV | -0.243 ± 0.68 |
| LWYCTSSNNCDCSAAIIVNT | 4.19 ± 0.1 |
| KAYRV | -0.633 ± 0.39 |
| VLLFVVLHLNLSVHILQNFQ | -0.396 ± 0.54 |
| RRYVICNYCLYSRV | 1.12 ± 0.33 |
| GGCMV | 0.493 ± 0.42 |
| LKYPMGFPDRSL | -0.658 ± 1.1 |
| ADNRVQRYTDPFLGSVSMYK | 0.563 ± 0.49 |
| CVHQIVGLTRIPFGWELSWR | -1.62 ± 1.7 |
| DALDLRSWQGEL | -0.274 ± 1.7 |
| FVSVWDILL | -0.049 ± 0.27 |
| QLVIILERRSWCHIL | 2.42 ± 0.27 |
| KKLVA | 0.286 ± 0.43 |
| IIRLVQNRSIMSFAMGISWV | 2.4 ± 0.33 |
| FLQNMSVILTIMNDIKIMED | 6.161 ± 0.047 |
| IFAPAIMSFYSLVIQWPYPG | 1.99 ± 0.45 |
| GLFNSDRVNQWPPGPCRDYV | 0.5 ± 0.28 |
| PYLVVVTHMAMASHWDLLLP | 0.25 ± 0.41 |
| SMDLLRDLSVDKWAFF | 0.133 ± 0.33 |
| SNMTSRYYNCMVTWVRILVR | 1.19 ± 0.41 |
| SLTDAEGSWLHRSWVKWNRC | -0.208 ± 0.62 |
| GCEFWSYTLTLRGKNACNKL | -0.234 ± 0.42 |
| PCSVISGHLTSMSSLSLFGG | -0.299 ± 0.32 |
| VSRMGVGTIRTQVHGIRGGT | -0.522 ± 1.6 |
| FTSSIMEFNESQWVNFTFIW | 4.42 ± 0.053 |
| RIMYSRLDYWLAYPVISERG | -0.057 ± 1.4 |

| Substance | amyloid nucleation score |
| --- | --- |
| SKVVGGESKVQ | 1.05 ± 0.6 |
| IRYQFVWSMSLCGLEMHWSS | 2.55 ± 0.21 |
| MMKVIAANRVY | 0.315 ± 0.63 |
| CHVQMSFNGLRYNFHTIFFI | 1.2 ± 0.74 |
| LNSGASMLWQTLSYPMSRVR | -0.506 ± 1.2 |
| VIILPGGVCMMVC | 0.843 ± 0.41 |
| SSYDWCWSHVCFK | 0.8 ± 0.38 |
| FVSVAQVEE | -1.2 ± 1 |
| RARRGWSTGDEQHMSGKGIK | 0.097 ± 0.49 |
| SMTLMWTTPSSYIAWI | -0.792 ± 0.48 |
| MYLVVTVRFNWLPRDQFTVL | 0.848 ± 0.37 |
| CFPPSNCYLLYKLCVLLRIN | -0.134 ± 0.45 |
| RMRATLDLSFWFGKEQYARV | 0.389 ± 0.45 |
| NCFVWRRMFKLISFDPYRV | inactive |
| LNRLSFLV | 0.065 ± 1.2 |
| VSIIE | -0.127 ± 0.4 |
| SLHCLMFVCSFRVSFEDWGE | 4.77 ± 0.13 |
| YGEHMLVDRCMRWVSSFYRG | 1.62 ± 0.3 |
| GRSSTRRNLIVDQSSVSERC | -0.009 ± 0.53 |
| IRRATF | 0.421 ± 0.84 |
| WLWPPLACDHMPIAVSETDA | -0.775 ± 0.99 |
| WISFPLV | 0.046 ± 0.48 |
| YWILQV | 0.299 ± 0.73 |
| ALPAMTQDKWHMNALRNYLD | 1.48 ± 0.81 |
| GWQDSLYLYYFTKFCRNQGG | -0.559 ± 0.46 |
| TGLVWYYCHSHRWNFRPCQW | 0.173 ± 0.55 |

| Substance | amyloid nucleation score |
| --- | --- |
| SHLCLAMVVRGV | 0.507 ± 0.56 |
| WTAHSSL | 1.09 ± 0.76 |
| EFWWIDICSGCYLFF | 6.5 ± 0.074 |
| MRGAVKVGEMWNHISESRVG | 0.98 ± 0.6 |
| YIWSVYLLLCWHWCRMSCSG | 1.23 ± 0.6 |
| STTPQRLNFDMSTPISWIRQ | 0.173 ± 0.32 |
| VHWRASCNMQLRADQRICIL | -0.84 ± 0.49 |
| SIRLHS | 2.65 ± 0.31 |
| NLTVCVQCNAAYCNYLSHRD | 7.517 ± 0.071 |
| NGSLLWYVCSSWNVMHDGSV | -1 ± 1.3 |
| DWCYYKRADRRTSSESSRAG | 0.333 ± 0.99 |
| LSGPCNFYQHSVSWCLCTYA | 0.764 ± 0.88 |
| WVIVASP | -1.42 ± 0.85 |
| MCDVERCRS | inactive |
| TCHSKSVCCLYGLCGGPEWG | 6.453 ± 0.055 |
| LKSRGWYCFSNVTMYDLRME | 3.42 ± 0.067 |
| DVSRQFYFDYYNIKGLNITK | 0.536 ± 0.79 |
| TRYGECAGWSGPYIADSGSA | -0.001 ± 0.31 |
| VLRLHAMRQQGICWSCVTGM | 0.185 ± 0.39 |
| CFTYSARH | 3.67 ± 0.11 |
| LSVYA | 0.612 ± 0.45 |
| KCWPLLRITSVCVFAFTGER | 0.937 ± 0.58 |
| FTLSKTILDRSFLWIQGLWS | -0.354 ± 0.81 |
| SVGYH | 0.699 ± 0.59 |
| NLLVCGVLRNCVSGTMF | 0.312 ± 1.2 |
| RTLGFLRCFIITSVDSTKNA | 0.514 ± 0.8 |

| Substance | amyloid nucleation score |
| --- | --- |
| GQEVHISIVNVLQFEYNRYD | 6.074 ± 0.05 |
| INWRN | -0.471 ± 0.34 |
| STYTALIFLHRSVFDLPSVQ | 0.787 ± 0.68 |
| TDCQRYI | 1.6 ± 0.54 |
| CTMSTSMPHRAVRRELSSIE | 0.052 ± 0.3 |
| VQNKYRFTLY | 1.65 ± 0.33 |
| FNFRYPKDRGVSIVGCNFPM | -0.065 ± 0.51 |
| NLLQLYDICAGCVRYSRWDG | 1.53 ± 0.16 |
| LFFQSDMFGVFCISYTTGVS | 0.323 ± 0.32 |
| SLSFTEVGRNRLSWRSAHSK | -0.616 ± 1.7 |
| IVGSVVRGMGLVIIRSTCFW | 3.15 ± 0.18 |
| TSGPN | -0.882 ± 0.6 |
| FRSVSGNMYTLLFRIE | 1.62 ± 0.24 |
| GRVFSFMIGFFVALTERTRA | -0.037 ± 1.7 |
| GNALYICRF | 0.572 ± 0.39 |
| GYMSKLEYLPTQLYLLSLRE | 0.85 ± 0.44 |
| MSGFTESRCMGRMVALGPFD | 0.4 ± 1.4 |
| GFNIDT | 0.689 ± 1.2 |
| LHTMCGK | 0.03 ± 0.97 |
| CDFRIFRLSVPGTYYVCDWL | -0.018 ± 0.6 |
